# Measured values published in patent US5688911A, “Trk neurotrophin binding motifs” (priority 1995, dated 1997).
# No end group written: not given here.
# T1: NT-4 (Xenopus laevis, UniProt P24727)
# T1 sequence (P24727 114-236): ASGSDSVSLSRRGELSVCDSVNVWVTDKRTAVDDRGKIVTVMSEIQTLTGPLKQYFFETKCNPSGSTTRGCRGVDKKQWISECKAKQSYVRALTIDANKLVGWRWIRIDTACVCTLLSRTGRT
# T2: NT-3 (Mus musculus, UniProt P20181)
# T2 sequence (P20181 140-258): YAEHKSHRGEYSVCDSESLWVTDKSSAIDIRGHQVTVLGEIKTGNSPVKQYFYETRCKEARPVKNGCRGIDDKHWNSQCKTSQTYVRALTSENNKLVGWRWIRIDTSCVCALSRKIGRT
# T3: BDNF (Mus musculus, UniProt P21237)
# T3 sequence (P21237 131-249): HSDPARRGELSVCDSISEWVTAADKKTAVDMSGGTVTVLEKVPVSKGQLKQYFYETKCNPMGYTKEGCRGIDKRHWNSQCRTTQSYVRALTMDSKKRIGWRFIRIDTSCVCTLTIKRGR
# B1: BDNF: Brain-derived neurotrophic factor, a neurotrophin; iodinated form in binding studies (protein, UniProt P23560 19-247, looked up)
# Neurotrophic factor BDNF …: APMKEANIRGQGGLAYPGVRTHGTLESVNGPKAGSRGLTSLADTFEHVIEELLDEDQKVRPNEENNKDADLYTSRVMLSSQVPLEPPLLFLLEEYKNYLDAANMSMRVRRHSDPARRGELSVCDSISEWVTAADKKTAVDMSGGTVTVLEKVPVSKGQLKQYFYETKCNPMGYTKEGCRGIDKRHWNSQCRTTQSYVRALTMDSKKRIGWRFIRIDTSCVCTLTIKRGR
# modifications: 125I label
# Legend:
# rat TrkB = molecular target: T4, rat TrkB (Rattus norvegicus, UniProt Q63604); details: mouse NIH 3T3 fibroblasts expressing rat TrkB; cited from earlier work
# T4 construct: host or cells: mouse NIH 3T3 fibroblasts (transfected)
# TrkB receptors = details: non-neuronal cells ectopically expressing TrkB; read-out: affinities; cited from earlier work
# NT-4 = molecular target: T1, NT-4; assay: Qualitative binding assay, receptor affinity, 125I-NT-4; set-up: key to 125I-Neurotrophin NTA binding (qualitative): +neurotrophin binding; -no neurotrophin binding detectible
# NGF = molecular target: T5, NGF (Mus musculus, UniProt P01139); assay: Qualitative binding assay, receptor affinity, 125I-NGF; set-up: key: +neurotrophin binding; -no neurotrophin binding detectible; details: Table 2
# T5 construct: Mouse submaxillary gland NGF-β, was purchased from Sigma Immuno Chemicals; purchased Amersham (125I-NGFβ); Sigma Immuno Chemicals (unlabelled NGF-β); host or cells: mouse submaxillary gland
# NT-3 = molecular target: T2, NT-3; assay: Qualitative binding assay, receptor affinity, 125I-NT-3; set-up: key: A "+" indicates binding of the neurotrophin in a qualitative binding assay using receptor affinity columns (no Kd determined); A "-" indicates that no binding of the neurotrophin to the respective receptor module could be detected
# BDNF = molecular target: T3, BDNF; assay: Qualitative binding assay, receptor affinity, 125I-BDNF; set-up: key: A "+" indicates binding of the neurotrophin in a qualitative binding assay using receptor affinity columns (no Kd determined); A "-" indicates that no binding of the neurotrophin to the respective receptor module could be detected
# T4 sequence (Q63604 32-821): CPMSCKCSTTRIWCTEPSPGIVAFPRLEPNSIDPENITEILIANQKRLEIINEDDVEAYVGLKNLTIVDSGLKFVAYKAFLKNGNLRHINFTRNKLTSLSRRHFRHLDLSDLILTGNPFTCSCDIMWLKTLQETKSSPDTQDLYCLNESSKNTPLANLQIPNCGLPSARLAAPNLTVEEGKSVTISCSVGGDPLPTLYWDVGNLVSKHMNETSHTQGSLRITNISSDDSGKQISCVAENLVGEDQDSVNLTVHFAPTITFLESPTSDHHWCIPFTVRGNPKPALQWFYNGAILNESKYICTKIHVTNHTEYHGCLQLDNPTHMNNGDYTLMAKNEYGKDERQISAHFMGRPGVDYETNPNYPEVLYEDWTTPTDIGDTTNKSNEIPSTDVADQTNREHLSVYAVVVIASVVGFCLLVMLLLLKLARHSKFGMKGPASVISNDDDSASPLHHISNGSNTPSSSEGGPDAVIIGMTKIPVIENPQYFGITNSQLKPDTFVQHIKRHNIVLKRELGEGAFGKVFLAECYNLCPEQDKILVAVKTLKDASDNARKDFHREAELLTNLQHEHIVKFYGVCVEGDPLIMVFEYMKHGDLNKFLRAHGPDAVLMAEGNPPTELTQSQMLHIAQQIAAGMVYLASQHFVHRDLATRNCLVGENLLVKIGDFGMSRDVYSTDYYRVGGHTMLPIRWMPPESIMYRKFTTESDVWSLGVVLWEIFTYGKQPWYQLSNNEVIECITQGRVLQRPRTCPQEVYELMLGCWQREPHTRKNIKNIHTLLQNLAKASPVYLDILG
# T5 sequence (P01139 122-241): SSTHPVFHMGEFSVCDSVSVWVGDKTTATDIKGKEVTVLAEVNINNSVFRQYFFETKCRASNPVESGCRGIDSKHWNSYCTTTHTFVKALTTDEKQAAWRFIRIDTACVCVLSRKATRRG
molecule,measurement,setting,value
NT-3: neurotrophin 3; iodinated form in binding studies,Kd,rat TrkB,~1.3 nM
same,Kd,TrkB receptors,~1 nM
"TIKNSGLRSIQPRAFAKNPHLRYI (SEQ ID NO:3) (TIKNSGLRSIQPRAFAKNPHLRYI) [LRM2 of TrkC, 24 amino acid second leucine rich motif of TrkC]",binding of neurotrophin-4,NT-4; data not shown,found to bind neurotrophin-4
TIVDSGLKFVAYKAFLKNGNLRHI (SEQ ID NO: 5) [TrkB L2],125I-Neurotrophin NGF binding (qualitative),NGF,-
same,125I-Neurotrophin NTA binding (qualitative),NT-4; Table 2,+
"TIVKSGLRFVAPDAFHFTPRLSHL (SEQ ID NO: 4) (TIVKSGLRFVAPDAFHFTPRLSHL; also: MBP fusion partner) [TrkA L2, isolated 24 amino acid second leucine-rich motif of rat TrkA (Thr97-Leu120), MBP fusion]",NT-3 binding (qualitative),NT-3,-
same,BDNF binding (qualitative),BDNF,-
B1,Kd,rat TrkB,~1.8 nM
same,Kd,TrkB receptors,~1 nM
